Like-named read-outs stand apart in the source and are kept apart here.

Assay [1] deals with 1086.c gp160 wt on pseudo-typed virus (HIV-1 clade C, 1086.c). Briefly: cell-based or functional assay.
Assay [2] concerns the target clade C HIV-1 1086.c ENV SOSIP trimer (HIV-1 clade C, 1086.c). The experiment in a line: BLI, antibody on anti-human Fc biosensor, Env in solution, global fit. A general note: In BLI a coated tip is dipped into the sample, and binding shifts an interference pattern.
Assay [3] has as its target BG505 SOSIP.664 envelope trimer protein (HIV-1 clade A, BG505). The description is as above.
For assay [4], the target named is BG505 T332N gp160 on pseudo-typed virus (HIV-1 clade A, BG505).
For assay [5], the target named is clade C HIV-1 1086.c ENV SOSIP trimer (HIV-1 clade C, 1086.c). Briefly: BLI, antibody on anti-human Fc biosensor, Env protein as analyte.
Assay [6] has as its target BG505 SOSIP.664 envelope trimer protein (HIV-1 clade A, BG505). The description is as above.
Assay [7] concerns the target 1086.c gp160 wt on pseudo-typed virus (HIV-1 clade C, 1086.c).
For assay [8], the target named is clade C HIV-1 1086.c ENV SOSIP trimer (HIV-1 clade C, 1086.c). The experiment in a line: BLI, antibody on anti-human Fc biosensor, Env protein as analyte; text paragraph 65 prints 0.12 nM.
Assay [9] has as its target BG505 SOSIP.664 envelope trimer protein (HIV-1 clade A, BG505). Briefly: BLI, antibody on anti-human Fc biosensor, Env protein as analyte; text paragraph 65 prints <1.03x10^-3 nM.
Assay [10] has as its target clade C HIV-1 1086.c ENV SOSIP trimer (HIV-1 clade C, 1086.c). The experiment in a line: BLI, antibody on anti-human Fc biosensor, Env protein as analyte; the sheet has this in the 1086.C SOSIP rows, text paragraph 67 gives this KD for BG505 SOSIP.664.
In assay [11] the target is HIV-1 Env 1086.C gp140C envelope glycoprotein (HIV-1 clade C, 1086.c). Briefly: BLI, antibody on anti-human Fc biosensor, Env protein as analyte.
The target of assay [12] is clade C HIV-1 1086.c ENV SOSIP trimer (HIV-1 clade C, 1086.c). Described as above. The source holds these as a separate data set.
Assay [13] addresses HIV-1 Env 1086.C D7gp120 envelope glycoprotein (HIV-1 clade C, 1086.c). The assay is described as above.
In assay [14] the target is HIV-1 Env 1086.C gp140C envelope glycoprotein (HIV-1 clade C, 1086.c). Briefly: BLI, antibody on anti-human Fc biosensor, Env in solution, global fit.
The target of assay [15] is clade C HIV-1 1086.c ENV SOSIP trimer (HIV-1 clade C, 1086.c). The description is as above. This is another data set of the same source.
For assay [16], the target named is HIV-1 Env 1086.C D7gp120 envelope glycoprotein (HIV-1 clade C, 1086.c). The assay is described as above.

In general, Kd refers to the equilibrium constant for the complex coming apart. One may read the koff as a measure of how fast the partners let go of each other. The kon is the second-order rate constant of association. Read a high kon as fast association. PGT121 (antibody) registered a neutralization of pseudotyped virus in TZM-bl cells, IC50 in assay [1] of under 0.001 µg/mL. The dissociation constant Kd turned out to be 0.17 nM in [2] and 0.15 nM in [3]. In assay [4], the neutralisation IC50, pseudo-typed virus on TZM-bl cells was determined as 0.003 µg/mL. The values for the koff in assay [5] and in [6] were 7.93e-05 s⁻¹ and 5.35e-06 s⁻¹, respectively. The kon in assay [5] was 460000 M⁻¹ s⁻¹; in [6] it was 34900 M⁻¹ s⁻¹.
On to 10-1074 (antibody), for which, in assay [3], the dissociation constant Kd was under 0.001 nM. In [4], the neutralisation IC50, pseudo-typed virus on TZM-bl cells is 0.003 µg/mL. In [6], the koff is under 1e-07 s⁻¹ and the kon is 48600 M⁻¹ s⁻¹.
As for HJ16 (antibody), the values for the dissociation constant Kd in [2] and in assay [3] were 3.59 nM and 1.29 nM, respectively. The neutralisation IC50, pseudo-typed virus on TZM-bl cells in [4] was over 4 µg/mL; in assay [7], 3.82 µg/mL. Also, the values for the off-rate constant (koff) in assay [5] and in assay [6] were 0.000151 s⁻¹ and 0.000128 s⁻¹, respectively. For the same substance, the figures for the kon in assay [5] and in assay [6] were 42200 M⁻¹ s⁻¹ and 99500 M⁻¹ s⁻¹, respectively.
Take F105 (antibody): the Kd in assay [2] amounted to 0.00172 nM; in assay [3] it was 0.0129 nM. For the same substance, the koff in [5] and in assay [6] was under 1e-07 s⁻¹ throughout. In addition, the kon was 30400 M⁻¹ s⁻¹ in assay [5] and 3750 M⁻¹ s⁻¹ in [6].
Turning to IgG1 b12 (antibody), the Kd in assay [8] came out at 0.122 nM. The same substance came in with a dissociation constant (Kd) in assay [2] of 0.12 nM. In assay [7], the neutralisation IC50, pseudo-typed virus on TZM-bl cells was over 4 µg/mL. For the same substance, in assay [5], the koff was 9.85e-05 s⁻¹ and the kon came out at 811000 M⁻¹ s⁻¹.
For the substance VRC-CH31 (antibody), the figures for the neutralisation IC50, pseudo-typed virus on TZM-bl cells in [4] and in assay [7] were 0.011 µg/mL and 2.16 µg/mL, respectively.
As for VRC03 (antibody), in assay [3], the Kd was under 0.00103 nM. Also, the neutralisation IC50, pseudo-typed virus on TZM-bl cells in assay [4] is 2.83 µg/mL. In assay [6], this substance yielded a koff of under 1e-07 s⁻¹ and a kon of 78600 M⁻¹ s⁻¹. Also, the Kd in assay [9] is under 0.001 nM.
Regarding N6 (antibody), the dissociation constant Kd was under 0.001 nM in assay [2] and 0.00114 nM in assay [3]. Moreover, the neutralisation IC50, pseudo-typed virus on TZM-bl cells in [4] was found to be 0.031 µg/mL; in assay [7] it was 0.023 µg/mL. The koff in assay [5] and in [6] was under 1e-07 s⁻¹ each time. The kon in assay [5] is 52300 M⁻¹ s⁻¹; in [6], 42200 M⁻¹ s⁻¹.
For the substance 35O22 (antibody), the Kd in assay [3] and in assay [10] was 0.0013 nM throughout. The substance also came in with a neutralisation IC50, pseudo-typed virus on TZM-bl cells in [7] of over 4 µg/mL.
On to CD4-IgG2 (Fc fusion), for which the neutralization of pseudotyped virus in TZM-bl cells, IC50 in [1] is 1.72 µg/mL. Moreover, in [4], the neutralisation IC50, pseudo-typed virus on TZM-bl cells was over 4 µg/mL.
In the case of PGT128 (antibody), the values for the Kd in assay [2] and in assay [3] were 0.35 nM and under 0.001 nM, respectively. The substance further displayed a neutralisation IC50, pseudo-typed virus on TZM-bl cells in assay [4] of 0.003 µg/mL. The koff is 0.000414 s⁻¹ in assay [5] and under 1e-07 s⁻¹ in assay [6]. The kon in [5] was 1.18e+06 M⁻¹ s⁻¹; in [6] it was 78600 M⁻¹ s⁻¹.
As to CH59 (antibody), the koff is under 1e-07 s⁻¹ in assay [11], under 1e-07 s⁻¹ in assay [12] and 0.000105 s⁻¹ in assay [13]. Besides, the kon turned out to be 10200 M⁻¹ s⁻¹ in [11], 63700 M⁻¹ s⁻¹ in assay [12] and 57900 M⁻¹ s⁻¹ in assay [13]. In [7], this substance came in with a neutralisation IC50, pseudo-typed virus on TZM-bl cells of over 4 µg/mL. For the same substance, the Kd in [14] was 0.0012 nM; in assay [15], under 0.001 nM; in assay [16], 1.81 nM.
3869 (antibody): the Kd in [2] is under 0.001 nM; in [3] it was 0.002 nM. In [7], this substance displayed a neutralisation IC50, pseudo-typed virus on TZM-bl cells of over 4 µg/mL. Besides, the koff in [5] is under 1e-07 s⁻¹; in [6], 4.83e-08 s⁻¹. Further, the figures for the kon in [5] and in assay [6] were 2.56e+06 M⁻¹ s⁻¹ and 24200 M⁻¹ s⁻¹, respectively.
Take CH106 (antibody): the Kd in [2] was 5.33 nM; in assay [3] it was 0.00351 nM. In addition, the neutralisation IC50, pseudo-typed virus on TZM-bl cells in assay [4] is over 4 µg/mL; in assay [7], 3.63 µg/mL. The koff in assay [5] was 6.64e-05 s⁻¹; in [6], under 1e-07 s⁻¹. The kon in assay [5] amounted to 12500 M⁻¹ s⁻¹; in assay [6] it was 13700 M⁻¹ s⁻¹.
VRC01 (antibody): the Kd is under 0.001 nM in [2] and 0.0021 nM in assay [3]. Moreover, the neutralisation IC50, pseudo-typed virus on TZM-bl cells was 0.06 µg/mL in [4] and 0.49 µg/mL in assay [7]. In addition, the koff in assay [5] and in [6] was under 1e-07 s⁻¹ each time. Also, the kon in assay [5] came to 72800 M⁻¹ s⁻¹; in [6] it was 23200 M⁻¹ s⁻¹.
Consider PG16 (antibody), for which the Kd in [3] was 7.35 nM. Moreover, the neutralisation IC50, pseudo-typed virus on TZM-bl cells in [4] worked out at 0.011 µg/mL. Besides, in assay [6], the koff amounted to 0.000358 s⁻¹ and the kon was found to be 48600 M⁻¹ s⁻¹.
CH58 (antibody): the koff in assay [11] is 1.25e-05 s⁻¹; in assay [12] it was under 1e-07 s⁻¹; in assay [13], 0.0012 s⁻¹. Further, the kon in assay [11] came out at 56800 M⁻¹ s⁻¹; in [12], 680000 M⁻¹ s⁻¹; in assay [13] it was 129000 M⁻¹ s⁻¹; in assay [5], 680000 M⁻¹ s⁻¹. Also, the Kd in assay [2] was under 0.001 nM; in assay [14], 0.22 nM; in assay [15] it was under 0.00103 nM; in assay [16], 9.31 nM.
As for PGT145 (antibody), the dissociation constant (Kd) in [2] came to 1.22 nM; in assay [3], 2.57 nM. This substance showed a neutralisation IC50, pseudo-typed virus on TZM-bl cells in assay [4] of under 0.001 µg/mL. Also, the results for the koff in [5] and in assay [6] were 0.00194 s⁻¹ and 0.000482 s⁻¹, respectively. For the same substance, the kon turned out to be 1.59e+06 M⁻¹ s⁻¹ in [5] and 187000 M⁻¹ s⁻¹ in assay [6].
Take 2G12 (antibody): the Kd in [2] was 0.07 nM; in [3], under 0.001 nM. This substance registered a neutralisation IC50, pseudo-typed virus on TZM-bl cells in assay [4] of 0.29 µg/mL. Further, the koff in assay [5] amounted to 5.61e-05 s⁻¹; in assay [6], 4.83e-08 s⁻¹. For the same substance, the figures for the kon in assay [5] and in assay [6] were 821000 M⁻¹ s⁻¹ and 254000 M⁻¹ s⁻¹, respectively.
On to PG09 (antibody), for which the dissociation constant Kd in assay [2] came out at 12.4 nM; in assay [3], 2.1 nM. The neutralisation IC50, pseudo-typed virus on TZM-bl cells in [4] was 0.02 µg/mL. Further, the values for the koff in [5] and in assay [6] were 0.000475 s⁻¹ and 0.0001 s⁻¹, respectively. Also, the values for the kon in [5] and in [6] were 38200 M⁻¹ s⁻¹ and 47600 M⁻¹ s⁻¹, respectively.
On to PGT126 (antibody), for which the figures for the Kd in [2] and in assay [3] were 0.37 nM and under 0.001 nM, respectively. In addition, the neutralisation IC50, pseudo-typed virus on TZM-bl cells in assay [4] amounted to 0.006 µg/mL. Further, the koff in assay [5] was 0.000462 s⁻¹; in assay [6] it was under 1e-07 s⁻¹. The kon in assay [5] is 1.26e+06 M⁻¹ s⁻¹; in [6] it was 268000 M⁻¹ s⁻¹.
Take 3BNC117 (antibody): the Kd in assay [2] came to 0.3 nM; in [3], 0.00108 nM. The neutralisation IC50, pseudo-typed virus on TZM-bl cells in assay [4] is 0.007 µg/mL; in [7], 0.21 µg/mL. Further, the koff is 3.92e-05 s⁻¹ in assay [5] and under 1e-07 s⁻¹ in assay [6]. The on-rate (kon) in assay [5] came to 132000 M⁻¹ s⁻¹; in assay [6], 44700 M⁻¹ s⁻¹.

The values above are taken from US20240181040A1.
